# Measured values published in patent US20240043859A1, “HERBICIDE-RESISTANT PROTEIN, AND GENE AND USE THEREOF” (QINGDAO KINGAGROOT CHEMICAL COMPOUND CO., LTD., priority 2020, published 2024).
# Entries after “also recorded” stand apart in the source; their conditions may differ.
# B1: QYD42: AAD-like enzyme, SEQ ID NO. 83; expressed from vectors pQY2309 (Arabidopsis), pQY2329 (maize), pQY2330 (soybean) (protein)
# chain: MQITPIADATFGATVTGLRLATLDDAGFARLHAAWLQHALLVFPGQFLTNAEQIGFAKRFGPIERIGGGDIVAISNVKADGTVRQHSPAEWDDMMKVIVGNMAWHADSTYMPVMAQGAVFSAEVVPPTGGRTCFADMRAAYDALDDATRALVHQRSARHSLVYSQSKLGHVQQAGSAYVGYGMDTTATPLRPLVKRHPETGRLSLLIGRHAHAIPGLEEAESERFLEDLVAWACQPPRVVAHHWTAGDVVLWDNRCLLHRAEPWDFTLPRVMWHSRLAGHPETEAAPLV
# modifications: Synthetic polypeptide, QYD42, D42
# Key:
# [1] = Chromogenic reaction of degrading herbicides in bacteria: 2,4-D; assay type: cell-based, Escherichia coli; conditions: recombinant E. coli expressing the gene, 2,4-D added to the medium, red = phenols
# How it was run: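 Colour from 2,4-D degradation was detected at A510 after 5 min at room temperature, with 4-aminoantipyrine and ferricyanide added to culture supernatant in pH 10 borate. Cultures were AAD12-expressing or empty-vector (pET15b) BL21(DE3), grown overnight at 28 °C with 0.5 mM 2,4-D, 0.1 mM IPTG and 2 mM α-ketoglutarate.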
# [2] = assay type: cell-based, Escherichia coli
# [3] = Chromogenic reaction of degrading herbicides in bacteria: triclopyr; assay type: cell-based, Escherichia coli; conditions: recombinant E. coli expressing the gene
# maize B104 = assay: Herbicide-resistance capacity testing of transgenic maize (spray); assay type: in vivo; conditions: 2,4-D 4.48 kg/ha foliage spray, 14 days / 15 days after spraying
# Description: 1. Vector construction: the overexpression vector was altered from pCambia3300, containing a Bar resistance gene that can be used as a selection marker for bialaphos (glufosinate). The AAD-like gene, QYD42, SEQ ID NO. 83, was linked to the pCambia3300 at the BamH I restriction site by seamless cloning to construct the transgenic vector pQY2329, of which the expression cassette consisted of a maize ubiquitin-1 promoter, the AAD gene and a Nos terminator, as shown in FIG. 7-1.
# 2. Genetic transformation of maizes: Maize transformation was carried out by the Agrobacterium-mediated immature embryo transformation method (Jones T, Lowe K, Hoerster G, et al. Maize Transformation Using the Morphogenic Genes Baby Boom and Wuschel2. Methods Mol Biol. 2019; 1864:81-93. Doi: 10.1007/978-1-4939-8778-8 6). The Agrobacterium (EHA105) comprising the pQY2329 overexpression vector was inoculated into YEP liquid medium (containing 25 mg/L Rifampicin and 50 mg/L Kanamycin), and shaking-cultured a t 28° C., 220 rmp/min overnight until the OD600 was about 1.0-1.5, then centrifuged at 6000 rmp/min for 10 min to collect the cells into a 50 ml centrifuge tube (sterilized). After discarding the supernatant, the cells were resuspended using MS infect culture medium (containing 68.5 g/L sucrose, 36 g/L glucose, pH 5.8) to OD550=0.8. […]
molecule,measurement,setting,value
B1,"Chromogenic reaction of degrading herbicides in bacteria: 2,4-D",[1],Yes
same,"Chromogenic reaction of degrading herbicides in bacteria: 2,4-D",[1]; listed as D42,"could degrade 2,4-D; also recorded: capable of degrading 2,4-D"
same,Chromogenic reaction of degrading herbicides in bacteria: MCPA,[2],Yes
same,Chromogenic reaction of degrading herbicides in bacteria: Triclopyr,[3],Yes
same,Chromogenic reaction of degrading herbicides in bacteria: Triclopyr,[3]; listed as D42,slight degradation
same,"Resistance of T1 transgenic maize to 2,4-D (spray)",maize B104,grew normally without any growth inhibition; also recorded: no apparent deformity
